Target: the molecule itself
Test: velocity sedimentation assay

B1: Drp1 K38A (enzyme)
chain: MEALIPVINKLQDVFNTVGADIIQLPQIVVVGTQSSGASSVLESLVGRDLLPRGTGIVTRRPLILQLVHVSQEDKRKTTGEENGVEAEEWGKFLHTKNKLYTDFDEIRQEIENETERISGNNKGVSPEPIHLKIFSPNVVNLTLVDLPGMTKVPVGDQPKDIELQIRELILRFISNPNSIILAVTAANTDMATSEALKISREVDPDGRRTLAVITKLDLMDAGTDAMDVLMGRVIPVKLGIIGVVNRSQLDINNKKSVTDSIRDEYAFLQKKYPSLANRNGTKYLARTLNRLLMHHIRDCLPELKTRINVLAAQYQSLLNSYGEPVDDKSATLLQLITKFATEYCNTIEGTAKYIETSELCGGARICYIFHETFGRTLESVDPLGGLNTIDILTAIRNATGPRPALFVPEVSFELLVKRQIKRLEEPSLRCVELVHEEMQRIIQHCSNYSTQELLRFPKLHDAIVEVVTCLLRKRLPVTNEMVHNLVAIELAYINTKHPDFADACGLMNNNIEEQRRNRLARELPSAVSRDKVASGGGGVGDGVQEPTTGNWRGMLKTSKAEELLAEEKSKPIPIMPASPQKGHAVNLLDVPVPVARKLSAREQRDCEVIERLIKSYFLIVRKNIQDSVPKAVMHFLVNHVKDTLQSELVGQLYKSSLLDDLLTESEDMAQRRKEAADMLKALQGASQIIAEIRETHLW
  binding result: binds

— publication PMC4551322 (Molecular Biology of the Cell, 2015)
